B1: NP_116010.1 (parent)
chain: HSLRAVSTDPPHHDHHDEFCLMP

Tests used:
[1] = variants of: B1; assay: protein stability index of a GFP-peptide fusion (GPS, HEK-293T) (PSI 1-6); higher = more stable; details: c terminus: native
[2] = variants of: B1; assay: as above; details: c terminus: native; remark: listed apart in the source

| Variant | protein stability index [1] | protein stability index [2] |
| --- | --- | --- |
| HSLRAVSTDPPHHDMHDEFCLMP [H15M] | 2.56 | 2.16 |
| HSLRAVSTDPPHHDVHDEFCLMP [H15V] | 2.81 | 3.14 |
| HSLRAVSTDPPHHDQHDEFCLMP [H15Q] | 2.48 | 2.79 |
| HSLRAVSTDPPHHDWHDEFCLMP [H15W] | 2.14 | 2.11 |
| HSLRAVSTDPPHHDTHDEFCLMP [H15T] | 2.58 | 1.86 |
| HSLRAVSTDPPHHDYHDEFCLMP [H15Y] | 2.53 | 1.84 |
| HSLRAVSTDPPHHDRHDEFCLMP [H15R] | 2.32 | 2.15 |
| HSLRAVSTDPPHHDSHDEFCLMP [H15S] | 2.76 | 1.8 |
| HSLRAVSTDPPHHDNHDEFCLMP [H15N] | 2.76 | 2.07 |
| HSLRAVSTDPPHHDHHAEFCLMP [D17A] | 2.44 | 1.76 |
| HSLRAVSTDPPHHDHHYEFCLMP [D17Y] | 2.17 | 3.33 |
| HSLRAVSTDPPHHDHHMEFCLMP [D17M] | 2.3 | 4.33 |
| HSLRAVSTDPPHHDHHSEFCLMP [D17S] | 2.31 | 2.78 |
| HSLRAVSTDPPHHDHHQEFCLMP [D17Q] | 2.2 | 2 |
| HSLRAVSTDPPHHDHHTEFCLMP [D17T] | 2.42 | 2.33 |
| HSLRAVSTDPPHHDHHCEFCLMP [D17C] | 2.46 | 2.45 |
| HSLRAVSTDPPHHDHHNEFCLMP [D17N] | 2.4 |  |
| HSLRAVSTDPPHHDHHREFCLMP [D17R] | 2.16 |  |
| HSLRAVSTDPPHHDHHFEFCLMP [D17F] | 2.21 | 3.35 |
| HSLRAVSTDPPHHDHHGEFCLMP [D17G] | 2.11 | 1.88 |
| HSLRAVSTDPPHHDHHVEFCLMP [D17V] | 2.33 | 2.93 |
| HSLRAVSTDPPHHDHHLEFCLMP [D17L] | 2.54 | 2.72 |
| HSLRAVSTDPPHHDHHKEFCLMP [D17K] | 2.4 |  |
| HSLRAVSTDPPHHDHHIEFCLMP [D17I] | 2.57 | 2.8 |
| HSLRAVSTDPPHHDHHHEFCLMP [D17H] | 2.21 |  |
| HSLRAVSTDPPHHDHHWEFCLMP [D17W] | 2.1 | 3.5 |

| Variant | protein stability index [1] | protein stability index [2] |
| --- | --- | --- |
| HSLRAVSTDPPHHDHHEEFCLMP [D17E] | 2.66 | 2.59 |
| HSLRAVSTDPPHHDHSDEFCLMP [H16S] | 2.54 | 2.61 |
| HSLRAVSTDPPHHDHDDEFCLMP [H16D] | 2.64 | 2.29 |
| HSLRAVSTDPPHHDHTDEFCLMP [H16T] | 2.69 | 2.58 |
| HSLRAVSTDPPHHDHCDEFCLMP [H16C] | 2.66 | 2.44 |
| HSLRAVSTDPPHHDHWDEFCLMP [H16W] | 2.32 |  |
| HSLRAVSTDPPHHDHFDEFCLMP [H16F] | 2.65 | 2.67 |
| HSLRAVSTDPPHHDHKDEFCLMP [H16K] | 2.81 | 1.86 |
| HSLRAVSTDPPHHDHNDEFCLMP [H16N] | 2.81 | 2.06 |
| HSLRAVSTDPPHHDHVDEFCLMP [H16V] | 2.98 | 2 |
| HSLRAVSTDPPHHDHYDEFCLMP [H16Y] | 2.58 | 2.61 |
| HSLRAVSTDPPHHDHLDEFCLMP [H16L] | 2.61 | 2.4 |
| HSLRAVSTDPPHHDHADEFCLMP [H16A] | 2.9 | 2.52 |
| HSLRAVSTDPPHHDHGDEFCLMP [H16G] | 2.64 | 1.99 |
| HSLRAVSTDPPHHDHRDEFCLMP [H16R] | 2.34 | 2.24 |
| HSLRAVSTDPPHHDHQDEFCLMP [H16Q] | 2.77 | 2.17 |
| HSLRAVSTDPPHHDHIDEFCLMP [H16I] | 2.87 | 1.65 |
| HSLRAVSTDPPHHDHMDEFCLMP [H16M] | 2.56 | 2.2 |
| HSLRAVSTDPPHHDHEDEFCLMP [H16E] | 3.25 | 2.84 |
| HSLRAVSTDPPHHDHHDGFCLMP [E18G] | 2.48 |  |
| HSLRAVSTDPPHHDHHDCFCLMP [E18C] | 2.85 | 2.46 |
| HSLRAVSTDPPHHDHHDHFCLMP [E18H] | 2.32 | 3.57 |
| HSLRAVSTDPPHHDHHDKFCLMP [E18K] | 1.95 | 3.01 |
| HSLRAVSTDPPHHDHHDIFCLMP [E18I] | 2.5 | 2.05 |
| HSLRAVSTDPPHHDHHDFFCLMP [E18F] | 2.12 | 3.33 |
| HSLRAVSTDPPHHDHHDAFCLMP [E18A] | 2.37 | 1.58 |

— the supplement of paper PMC10567573
